US20020177126A1

Substrate: F protein of wild type RSV A/Long (respiratory syncytial virus, strain A/Long) (UniProt P12568)
Assay: cell-based or functional assay

Sequence of F protein of wild type RSV A/Long (respiratory syncytial virus, strain A/Long) (P12568 26-574): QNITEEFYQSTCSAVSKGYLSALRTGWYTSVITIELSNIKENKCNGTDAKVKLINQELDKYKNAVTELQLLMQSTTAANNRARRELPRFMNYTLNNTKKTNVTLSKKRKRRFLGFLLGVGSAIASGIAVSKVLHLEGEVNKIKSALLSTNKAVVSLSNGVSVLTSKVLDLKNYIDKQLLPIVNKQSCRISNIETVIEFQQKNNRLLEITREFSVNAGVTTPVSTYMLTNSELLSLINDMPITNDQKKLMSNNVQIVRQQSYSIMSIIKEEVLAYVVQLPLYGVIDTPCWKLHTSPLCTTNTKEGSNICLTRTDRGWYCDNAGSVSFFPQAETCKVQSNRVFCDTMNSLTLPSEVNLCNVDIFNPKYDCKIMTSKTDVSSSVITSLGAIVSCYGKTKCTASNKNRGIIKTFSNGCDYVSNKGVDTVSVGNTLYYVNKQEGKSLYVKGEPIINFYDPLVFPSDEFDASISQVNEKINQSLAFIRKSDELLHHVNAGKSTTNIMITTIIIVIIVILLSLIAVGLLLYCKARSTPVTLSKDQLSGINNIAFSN

| Binder | Fold Difference (Control IC50) | Fold Difference (Curve IC50) | Mean IC50 (Control), RSV microneutralization | Mean IC50 (Curve), RSV microneutralization |
| --- | --- | --- | --- | --- |
| A17d4 (Fab) (Fab, V domains shown) VH: QVTLRESGPALVKPTQTLTLTCTFSGFSLSTAGMSVGWIRQPPGKALEWLADIWWDGKKSYNPSLKDRLTISKDTSKNQVVLKVTNMDPADTATYYCARDMIFNFYFDVWGQGTTVTVSS VL: DIQMTQSPSTLSASVGDRVTITCLPSSRVGYMHWYQQKPGKAPKLLIYDTMYQASGVPSRFSGSGSGTEFTLTISSLQPDDFATYYCFQFSGYPFTFGGGTKLEIK | 31 fold | 25 fold | 0.0171 µg/mL | 0.0179 µg/mL |
| A8c7 (Fab) (Fab, V domains shown) VH: QVTLRESGPALVKPTQTLTLTCTFSGFSLSTAGMSVGWIRQPPGKALEWLADIWWDDKKSYNPSLKDRLTISKDTSKNQVVLKVTNMDPADTATYYCARDMIFNWYFDVWGQGTTVTVSS VL: DIQMTQSPSTLSASVGDRVTITCSASSRVGYMHWYQQKPGKAPKLLIYDTRYQSSGVPSRFSGSGSGTEFTLTISSLQPDDFATYYCFQGSGYPFTFGGGTKLEIK | 34 fold | 3 fold | 0.157 µg/mL | 0.177 µg/mL |
| A4B4 (Fab) (Fab, V domains shown) VH: QVTLRESGPALVKPTQTLTLTCTFSGFSLSTAGMSVGWIRQPPGKALEWLADIWWDDKKHYNPSLKDRLTISKDTSKNQVVLKVTNMDPADTATYYCARDMIFNFYFDVWGQGTTVTVSS VL: DIQMTQSPSTLSASVGDRVTITCSASSRVGYMHWYQQKPGKAPKLLIYDTFFLDSGVPSRFSGSGSGTEFTLTISSLQPDDFATYYCFQGSGYPFTFGGGTKLEIK | 13 fold | 11 fold | 0.0411 µg/mL | 0.0414 µg/mL |
| A1h5 (Fab) (Fab, V domains shown) VH: QVTLRESGPALVKPTQTLTLTCTFSGFSLSTPGMSVGWIRQPPGKALEWLADIWWDGKKHYNPSLKDRLTISKDTSKNQVVLKVTNMDPADTATYYCARDMIFNWYFDVWGQGTTVTVSS VL: DIQMTQSPSTLSASVGDRVTITCSLSSSVGYMHWYQQKPGKAPKLLIYDTFFHRSGVPSRFSGSGSGTEFTLTISSLQPDDFATYYCFQGSGYPFTFGGGTKLEIK | 3 fold | 2 fold | 0.176 µg/mL | 0.194 µg/mL |
